B1: HMG1 (protein, UniProt P09429 1-215, looked up)
High mobility group protein B1: MGKGDPKKPRGKMSSYAFFVQTCREEHKKKHPDASVNFSEFSKKCSERWKTMSAKEKGKFEDMAKADKARYEREMKTYIPPKGETKKKFKDPNAPKRPPSAFFLFCSEYRPKIKGEHPGLSIGDVAKKLGEMWNNTAADDKQPYEKKAAKLKEKYEKDIAAYRAKGKPDAAKKGVVKAEKSKKKKEEEEDEEDEEDEEEEEDEEDEDEEEDDDDE
B2: ARID3C (protein, UniProt A6NKF2 1-412, looked up)
AT-rich interactive …: MEALQKQQAARLAQGVGPLAPACPLLPPQPPLPDHRTLQAPEGALGNVGAEEEEDAEEDEEKREEAGAEEEAAEESRPGAQGPSSPSSQPPGLHPHEWTYEEQFKQLYELDADPKRKEFLDDLFSFMQKRGTPVNRVPIMAKQVLDLYALFRLVTAKGGLVEVINRKVWREVTRGLSLPTTITSAAFTLRTQYMKYLYPYECETRALSSPGELQAAIDSNRREGRRQAYTATPLFGLAGPPPRGAQDPALGPGPAPPATQSSPGPAQGSTSGLPAHACAQLSPSPIKKEESGIPNPCLALPVGLALGPTREKLAPEEPPEKRAVLMGPMDPPRPCMPPSFLPRGKVPLREERLDGPLNLAGSGISSINMALEINGVVYTGVLFARRQPVPASQGPTNPAPPPSTGPPSSILP
B3: HMG20B (protein, UniProt Q9P0W2 1-317, looked up)
SWI/SNF-related …: MSHGPKQPGAAAAPAGGKAPGQHGGFVVTVKQERGEGPRAGEKGSHEEEPVKKRGWPKGKKRKKILPNGPKAPVTGYVRFLNERREQIRTRHPDLPFPEITKMLGAEWSKLQPTEKQRYLDEAEREKQQYMKELRAYQQSEAYKMCTEKIQEKKIKKEDSSSGLMNTLLNGHKGGDCDGFSTFDVPIFTEEFLDQNKAREAELRRLRKMNVAFEEQNAVLQRHTQSMSSARERLEQELALEERRTLALQQQLQAVRQALTASFASLPVPGTGETPTLGTLDFYMARLHGAIERDPAQHEKLIVRIKEILAQVASEHL
B4: ARID4A (protein, UniProt P29374 1-1257, looked up)
AT-rich interactive …: MKAADEPAYLTVGTDVSAKYRGAFCEAKIKTVKRLVKVKVLLKQDNTTQLVQDDQVKGPLRVGAIVETRTSDGSFQEAIISKLTDASWYTVVFDDGDERTLRRTSLCLKGERHFAESETLDQLPLTNPEHFGTPVIAKKTNRGRRSSLPVTEDEKEEESSEEEDEDKRRLNDELLGKVVSVVSATERTEWYPALVISPSCNDDITVKKDQCLVRSFIDSKFYSIARKDIKEVDILNLPESELSTKPGLQKASIFLKTRVVPDNWKMDISEILESSSSDDEDGPAEENDEEKEKEAKKTEEEVPEEELDPEERDNFLQQLYKFMEDRGTPINKPPVLGYKDLNLFKLFRLVYHQGGCDNIDSGAVWKQIYMDLGIPILNSAASYNVKTAYRKYLYGFEEYCRSANIQFRTVHHHEPKVKEEKKDLEESMEEALKLDQEMPLTEVKSEPEENIDSNSESEREEIELKSPRGRRRIARDVNSIKKEIEEEKTEDKLKDNDTENKDVDDDYETAEKKENELLLGRKNTPKQKEKKIKKQEDSDKDSDEEEEKSQEREETESKCDSEGEEDEEDMEPCLTGTKVKVKYGRGKTQKIYEASIKSTEIDDGEVLYLVHYYGWNVRYDEWVKADRIIWPLDKGGPKKKQKKKAKNKEDSEKDEKRDEERQKSKRGRPPLKSTLSSNMPYGLSKTANSEGKSDSCSSDSETEDALEKNLINEELSLKDELEKNENLNDDKLDEENPKISAHILKENDRTQMQPLETLKLEVGENEQIVQIFGNKMEKTEEVKKEAEKSPKGKGRRSKTKDLSLEIIKISSFGQNEAGSEPHIEAHSLELSSLDNKNFSSATEDEIDQCVKEKKLKRKILGQSSPEKKIRIENGMEMTNTVSQERTSDCIGSEGMKNLNFEQHFERENEGMPSLIAESNQCIQQLTSERFDSPAEETVNIPLKEDEDAMPLIGPETLVCHEVDLDDLDEKDKTSIEDVAVESSESNSLVSIPPALPPVVQHNFSVASPLTLSQDESRSVKSESDITIEVDSIAEESQEGLCERESANGFETNVASGTCSIIVQERESREKGQKRPSDGNSGLMAKKQKRTPKRTSAAAKNEKNGTGQSSDSEDLPVLDNSSKCTPVKHLNVSKPQKLARSPARISPHIKDGEKDKHREKHPNSSPRTYKWSFQLNELDNMNSTERISFLQEKLQEIRKYYMSLKSEVATIDRRRKRLKKKDREVSHAGASMSSASSDTGMSPSSSSPPQNVLAVECR
B5: HLX (protein, UniProt Q14774 1-488, looked up)
H2.0-like homeobox protein: MFAAGLAPFYASNFSLWSAAYCSSAGPGGCSFPLDPAAVKKPSFCIADILHAGVGDLGAAPEGLAGASAAALTAHLGSVHPHASFQAAARSPLRPTPVVAPSEVPAGFPQRLSPLSAAYHHHHPQQQQQQQQPQQQQPPPPPRAGALQPPASGTRVVPNPHHSGSAPAPSSKDLKFGIDRILSAEFDPKVKEGNTLRDLTSLLTGGRPAGVHLSGLQPSAGQFFASLDPINEASAILSPLNSNPRNSVQHQFQDTFPGPYAVLTKDTMPQTYKRKRSWSRAVFSNLQRKGLEKRFEIQKYVTKPDRKQLAAMLGLTDAQVKVWFQNRRMKWRHSKEAQAQKDKDKEAGEKPSGGAPAADGEQDERSPSRSEGEAESESSDSESLDMAPSDTERTEGSERSLHQTTVIKAPVTGALITASSAGSGGSSGGGGNSFSFSSASSLSSSSTSAGCASSLGGGGASELLPATQPTASSAPKSPEPAQGALGCL
B6: HMX2 (protein, UniProt A2RU54 1-273, looked up)
Homeobox protein HMX2: MGSKEDAGKGCPAAGGVSSFTIQSILGGGPSEAPREPVGWPARKRSLSVSSEEEEPDDGWKAPACFCPDQHGPKEQGPKHHPPIPFPCLGTPKGSGGSGPGGLERTPFLSPSHSDFKEEKERLLPAGSPSPGSERPRDGGAERQAGAAKKKTRTVFSRSQVYQLESTFDMKRYLSSSERACLASSLQLTETQVKTWFQNRRNKWKRQLSAELEAANMAHASAQTLVSMPLVFRDSSLLRVPVPRSLAFPAPLYYPGSNLSALPLYNLYNKLDY
B7: HMBOX1 (protein, UniProt Q6NT76 1-420, looked up)
Homeobox-containing protein 1: MLSSFPVVLLETMSHYTDEPRFTIEQIDLLQRLRRTGMTKHEILHALETLDRLDQEHSDKFGRRSSYGGSSYGNSTNNVPASSSTATASTQTQHSGMSPSPSNSYDTSPQPCTTNQNGRENNERLSTSNGKMSPTRYHANSMGQRSYSFEASEEDLDVDDKVEELMRRDSSVIKEEIKAFLANRRISQAVVAQVTGISQSRISHWLLQQGSDLSEQKKRAFYRWYQLEKTNPGATLSMRPAPIPIEDPEWRQTPPPVSATSGTFRLRRGSRFTWRKECLAVMESYFNENQYPDEAKREEIANACNAVIQKPGKKLSDLERVTSLKVYNWFANRRKEIKRRANIEAAILESHGIDVQSPGGHSNSDDVDGNDYSEQDDSTSHSDHQDPISLAVEMAAVNHTILALARQGANEIKTEALDDD
B8: ARID5B (protein, UniProt Q14865 1-1188, looked up)
AT-rich interactive …: MEPNSLQWVGSPCGLHGPYIFYKAFQFHLEGKPRILSLGDFFFVRCTPKDPICIAELQLLWEERTSRQLLSSSKLYFLPEDTPQGRNSDHGEDEVIAVSEKVIVKLEDLVKWVHSDFSKWRCGFHAGPVKTEALGRNGQKEALLKYRQSTLNSGLNFKDVLKEKADLGEDEEETNVIVLSYPQYCRYRSMLKRIQDKPSSILTDQFALALGGIAVVSRNPQILYCRDTFDHPTLIENESICDEFAPNLKGRPRKKKPCPQRRDSFSGVKDSNNNSDGKAVAKVKCEARSALTKPKNNHNCKKVSNEEKPKVAIGEECRADEQAFLVALYKYMKERKTPIERIPYLGFKQINLWTMFQAAQKLGGYETITARRQWKHIYDELGGNPGSTSAATCTRRHYERLILPYERFIKGEEDKPLPPIKPRKQENSSQENENKTKVSGTKRIKHEIPKSKKEKENAPKPQDAAEVSSEQEKEQETLISQKSIPEPLPAADMKKKIEGYQEFSAKPLASRVDPEKDNETDQGSNSEKVAEEAGEKGPTPPLPSAPLAPEKDSALVPGASKQPLTSPSALVDSKQESKLCCFTESPESEPQEASFPSFPTTQPPLANQNETEDDKLPAMADYIANCTVKVDQLGSDDIHNALKQTPKVLVVQSFDMFKDKDLTGPMNENHGLNYTPLLYSRGNPGIMSPLAKKKLLSQVSGASLSSSYPYGSPPPLISKKKLIARDDLCSSLSQTHHGQSTDHMAVSRPSVIQHVQSFRSKPSEERKTINDIFKHEKLSRSDPHRCSFSKHHLNPLADSYVLKQEIQEGKDKLLEKRALPHSHMPSFLADFYSSPHLHSLYRHTEHHLHNEQTSKYPSRDMYRESENSSFPSHRHQEKLHVNYLTSLHLQDKKSAAAEAPTDDQPTDLSLPKNPHKPTGKVLGLAHSTTGPQESKGISQFQVLGSQSRDCHPKACRVSPMTMSGPKKYPESLSRSGKPHHVRLENFRKMEGMVHPILHRKMSPQNIGAARPIKRSLEDLDLVIAGKKARAVSPLDPSKEVSGKEKASEQESEGSKAAHGGHSGGGSEGHKLPLSSPIFPGLYSGSLCNSGLNSRLPAGYSHSLQYLKNQTVLSPLMQPLAFHSLVMQRGIFTSPTNSQQLYRHLAAATPVGSSYGDLLHNSIYPLAAINPQAAFPSSQLSSVHPSTKL
B9: HOXC13 (protein, UniProt P31276 1-330, looked up)
Homeobox protein Hox-C13: MTTSLLLHPRWPESLMYVYEDSAAESGIGGGGGGGGGGTGGAGGGCSGASPGKAPSMDGLGSSCPASHCRDLLPHPVLGRPPAPLGAPQGAVYTDIPAPEAARQCAPPPAPPTSSSATLGYGYPFGGSYYGCRLSHNVNLQQKPCAYHPGDKYPEPSGALPGDDLSSRAKEFAFYPSFASSYQAMPGYLDVSVVPGISGHPEPRHDALIPVEGYQHWALSNGWDSQVYCSKEQSQSAHLWKSPFPDVVPLQPEVSSYRRGRKKRVPYTKVQLKELEKEYAASKFITKEKRRRISATTNLSERQVTIWFQNRRVKEKKVVSKSKAPHLHST
B10: HNF4G (protein, UniProt Q14541 1-408, looked up)
Hepatocyte nuclear factor …: MNTTDNGVNCLCAICGDRATGKHYGASSCDGCKGFFRRSIRKSHVYSCRFSRQCVVDKDKRNQCRYCRLRKCFRAGMKKEAVQNERDRISTRRSTFDGSNIPSINTLAQAEVRSRQISVSSPGSSTDINVKKIASIGDVCESMKQQLLVLVEWAKYIPAFCELPLDDQVALLRAHAGEHLLLGATKRSMMYKDILLLGNNYVIHRNSCEVEISRVANRVLDELVRPFQEIQIDDNEYACLKAIVFFDPDAKGLSDPVKIKNMRFQVQIGLEDYINDRQYDSRGRFGELLLLLPTLQSITWQMIEQIQFVKLFGMVKIDNLLQEMLLGGASNDGSHLHHPMHPHLSQDPLTGQTILLGPMSTLVHADQISTPETPLPSPPQGSGQEQYKIAANQASVISHQHLSKQKQL
B11: HMG20A (protein, UniProt Q9NP66 1-347, looked up)
High mobility group protein …: MENLMTSSTLPPLFADEDGSKESNDLATTGLNHPEVPYSSGATSSTNNPEFVEDLSQGQLLQSESSNAAEGNEQRHEDEQRSKRGGWSKGRKRKKPLRDSNAPKSPLTGYVRFMNERREQLRAKRPEVPFPEITRMLGNEWSKLPPEEKQRYLDEADRDKERYMKELEQYQKTEAYKVFSRKTQDRQKGKSHRQDAARQATHDHEKETEVKERSVFDIPIFTEEFLNHSKAREAELRQLRKSNMEFEERNAALQKHVESMRTAVEKLEVDVIQERSRNTVLQQHLETLRQVLTSSFASMPLPGSGETPTVDTIDSYMNRLHSIILANPQDNENFIATVREVVNRLDR

What follows are molecules tested on HEK293FT cells transfected with TF library (assay: Screening of TF condensates based on fluorescent puncta). Conditions: Figure 1B numerical data; TF library screen, one value per transcriptional factor.
Assay type: cell-based
Summary of the method: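 Puncta scoring used automated confocal imaging of fifty random fields per well, after anti-Flag or anti-GAL4 immunofluorescence (Alexa 488) in PFA-fixed cells. HEK293FT cells carried TF library plasmids delivered with PEI (1.6 μg/ml DNA). At 60 h they were switched for 12 h to glucose-containing or glucose-free medium.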

Compared with B1, B2 is lower in “Z score of condensed fraction” value: 1.213 for the first, 0.4617 for the second.

Compared with B3, B4 is higher in “Z score of condensed fraction” value: -0.2795 for the first, 0.8979 for the second.

First: B5
Second: B6
The “Z score of condensed fraction” value of the first is higher: 2.079 for the first, 0.8931 for the second.

First: B7
Second: B8
The “Z score of condensed fraction” value of the first is higher: -0.9564 for the first, -1.099 for the second.

Going from B9 to B10, the “Z score of condensed fraction” value rises from -0.9976 to 0.7637.

In the case of B11, the “Z score of condensed fraction” value is reported as -0.5061.

Source: PMC11574045, “A cofactor-induced repressive type of transcription factor condensation can be induced by synthetic peptides to suppress tumorigenesis” (The EMBO Journal, 2024)
